First the molecules themselves.
B1: CPEB3 Ribozyme (parent)
chain: GGGGGCCACAGCAGAAGCGUUCACGUCGCGGCCCCUGUCAGAUUCUGGUGAAUCUGCGAAUUCUGCUGU

The variants in this data set derive from B1. Put plainly: self-cleavage, relative activity (ratio to wild type); higher = more cleavage; co-transcriptional.
On to G14C A15C, for which the self-cleavage was determined as 0.166.

Turning to G14U G56C, the self-cleavage was 0.292.

Turning to G14U G56U, the self-cleavage amounted to 0.309.

G14U A16U: the self-cleavage worked out at 0.363.

As for G14U A16C, the self-cleavage stood at 0.123.

As for A15C C29G, the self-cleavage was found to be 0.163.

Consider A15C C29U, for which the self-cleavage was determined as 0.122.

A15C C32A: the self-cleavage was determined as 0.302.

In the case of A15C C32G, the self-cleavage came to 0.153.

For G14U G58A, the self-cleavage came to 0.679.

G14U G58C: the self-cleavage was 0.72.

Regarding G14A U62A, the self-cleavage stood at 0.554.

As for G14A U62C, the self-cleavage was 0.338.

Take G14A U62G: the self-cleavage was found to be 0.605.

In the case of A15C G56A, the self-cleavage is 0.651.

As for A15C G56U, the self-cleavage turned out to be 0.626.

As to A15C A51C, the self-cleavage was 0.752.

In the case of G14A U55G, the self-cleavage worked out at 0.172.

For the variant G14A U55C, the self-cleavage worked out at 0.281.

As to G14U G41C, the self-cleavage was 0.245.

Consider A15C G41C, for which the self-cleavage was found to be 0.215.

As for A15C G41A, the self-cleavage came to 0.289.

For the variant G14C U53G, the self-cleavage was 0.397.

As for G14A U36A, the self-cleavage was determined as 0.0973.

Consider G14A U36C, for which the self-cleavage was found to be 0.442.

For G14C A42G, the self-cleavage amounted to 0.266.

For G14C A42U, the self-cleavage amounted to 0.228.

For the variant G14C A42C, the self-cleavage amounted to 0.331.

For G14A U43G, the self-cleavage amounted to 0.23.

G14A U43A: the self-cleavage amounted to 0.306.

Regarding G14A U43C, the self-cleavage came to 0.624.

As for A15C G50A, the self-cleavage turned out to be 0.933.

As to A15C G50C, the self-cleavage was determined as 0.808.

With G14C C34A, the self-cleavage came to 0.406.

As to G14C C34G, the self-cleavage turned out to be 0.236.

On to G14C G17C, for which the self-cleavage was found to be 0.119.

Take G14C G17A: the self-cleavage came out at 0.164.

Regarding G14U C54A, the self-cleavage turned out to be 0.266.

On to G14U C54G, for which the self-cleavage worked out at 0.363.

For the variant G14U C54U, the self-cleavage was found to be 0.734.

For G14U U62C, the self-cleavage came out at 0.364.

Turning to G14U U62G, the self-cleavage is 0.513.

As for A15C G17A, the self-cleavage was found to be 0.136.

In the case of A15C G17U, the self-cleavage stood at 0.25.

For G14A G65C, the self-cleavage was 0.311.

Turning to G14A G65U, the self-cleavage turned out to be 0.3.

Take G14U C45U: the self-cleavage is 0.721.

In the case of G14U C45G, the self-cleavage came to 0.62.

Take G14U C45A: the self-cleavage is 0.665.

For G14U U46C, the self-cleavage was 0.758.

Regarding G14U U46A, the self-cleavage was determined as 0.862.

Take G14C G19A: the self-cleavage is 0.136.

On to A15C A40G, for which the self-cleavage was found to be 0.626.

On to A15C A40C, for which the self-cleavage was determined as 0.137.

As for G14C C33A, the self-cleavage came to 0.413.

For the variant G14C C33U, the self-cleavage came to 0.636.

With G14C C33G, the self-cleavage amounted to 0.293.

On to A15C C35G, for which the self-cleavage is 0.285.

For the variant A15C C35A, the self-cleavage came to 0.229.

Consider A15C A42G, for which the self-cleavage amounted to 0.678.

With A15C A42C, the self-cleavage worked out at 0.602.

As to A15C A42U, the self-cleavage worked out at 0.618.

For the variant G14A G58U, the self-cleavage turned out to be 0.895.

For G14A G58C, the self-cleavage turned out to be 0.674.

On to G14A G58A, for which the self-cleavage was 0.703.

As for G14U A23C, the self-cleavage was determined as 0.7.

With G14U A23U, the self-cleavage turned out to be 0.986.

For the variant G14U A23G, the self-cleavage stood at 0.452.

As to A15C G48A, the self-cleavage is 0.935.

With A15C G48U, the self-cleavage was 0.883.

For A15C G48C, the self-cleavage was found to be 0.918.

As for G14U G37U, the self-cleavage came out at 0.129.

Regarding G14U G37C, the self-cleavage came out at 0.129.

G14U U64G: the self-cleavage was determined as 0.481.

With G14U U64A, the self-cleavage came to 0.458.

For the variant G14U U64C, the self-cleavage was 0.401.

On to G14U U44C, for which the self-cleavage was determined as 0.325.

G14C A16U: the self-cleavage turned out to be 0.28.

As for G14C A16G, the self-cleavage came to 0.353.

For the variant G14C A16C, the self-cleavage amounted to 0.143.

On to G14A U46C, for which the self-cleavage is 0.709.

In the case of G14A U46G, the self-cleavage turned out to be 0.844.

Regarding G14C C24U, the self-cleavage came out at 0.175.

Consider G14U G30A, for which the self-cleavage worked out at 0.288.

As to G14U G30C, the self-cleavage is 0.187.

In the case of G14U G30U, the self-cleavage is 0.155.

As for G14U G50A, the self-cleavage worked out at 0.812.

In the case of G14U G50C, the self-cleavage amounted to 0.616.

For the variant G14U G50U, the self-cleavage came out at 0.815.

As for G14C C32G, the self-cleavage is 0.193.

For G14C C32A, the self-cleavage amounted to 0.25.

In the case of A15C G30A, the self-cleavage is 0.392.

For A15C G30U, the self-cleavage was 0.0766.

For G14U U61C, the self-cleavage came to 0.367.

As to G14U U61G, the self-cleavage worked out at 0.432.

In the case of G14A U61A, the self-cleavage amounted to 0.357.

For the variant A15C G25A, the self-cleavage is 0.127.

On to G14C G30A, for which the self-cleavage stood at 0.255.

Consider G14U C35U, for which the self-cleavage stood at 0.601.

For the variant G14U C35G, the self-cleavage came to 0.309.

As for A15C C34A, the self-cleavage is 0.394.

As to G14U U55C, the self-cleavage worked out at 0.345.

Consider G14U U55G, for which the self-cleavage stood at 0.268.

In the case of G14U G48A, the self-cleavage was 0.893.

G14C C29G: the self-cleavage was 0.172.

Regarding G14C C29U, the self-cleavage was found to be 0.163.

Regarding G14C C29A, the self-cleavage was 0.0734.

For the variant G14C G50C, the self-cleavage was determined as 0.405.

Regarding G14C G50U, the self-cleavage came to 0.618.

On to G14C G50A, for which the self-cleavage is 0.613.

In the case of G14C U64C, the self-cleavage came out at 0.283.

On to G14C U64A, for which the self-cleavage stood at 0.432.

As to G14C U64G, the self-cleavage turned out to be 0.546.

Regarding A15C G58A, the self-cleavage is 0.809.

On to G14U A42U, for which the self-cleavage is 0.425.

Regarding G14U A42C, the self-cleavage was 0.523.

As for G14U C18A, the self-cleavage amounted to 0.142.

For the variant G14U C18G, the self-cleavage came to 0.0825.

Take G14U C18U: the self-cleavage stood at 0.225.

For G14C U67C, the self-cleavage came out at 0.443.

Take G14C U67G: the self-cleavage was found to be 0.549.

Consider G14C U67A, for which the self-cleavage stood at 0.468.

As for G14U U49C, the self-cleavage is 0.678.

In the case of G14U U49G, the self-cleavage is 0.867.

On to G14U C57A, for which the self-cleavage was determined as 0.216.

For the variant G14U C57G, the self-cleavage is 0.246.

Consider G14U C57U, for which the self-cleavage is 0.351.

Take G14C G37U: the self-cleavage worked out at 0.183.

On to G14C G37C, for which the self-cleavage is 0.127.

Regarding G14C G37A, the self-cleavage was 0.151.

As to G14C G41A, the self-cleavage was determined as 0.16.

As for G14C G41U, the self-cleavage was 0.231.

G14C G41C: the self-cleavage was 0.192.

As for G14C G28A, the self-cleavage stood at 0.154.

For G14C G28C, the self-cleavage turned out to be 0.154.

In the case of G14C G28U, the self-cleavage worked out at 0.148.

Turning to G14C U38G, the self-cleavage amounted to 0.157.

Take G14U U20G: the self-cleavage amounted to 0.137.

Consider G14U U20A, for which the self-cleavage came to 0.121.

Turning to G14U A40U, the self-cleavage came to 0.179.

For G14U A40G, the self-cleavage was 0.425.

With G14C G68A, the self-cleavage amounted to 0.704.

On to G14C G68C, for which the self-cleavage was 0.607.

Turning to G14C G68U, the self-cleavage came out at 0.64.

As to G14C U55C, the self-cleavage worked out at 0.271.

In the case of G14C U55A, the self-cleavage was found to be 0.22.

With G14C A40G, the self-cleavage amounted to 0.324.

In the case of G14C A40C, the self-cleavage amounted to 0.183.

As to G14U C63G, the self-cleavage amounted to 0.994.

In the case of G14U C63A, the self-cleavage came to 0.994.

In the case of G14U C63U, the self-cleavage stood at 0.893.

Turning to G14C U21A, the self-cleavage is 0.477.

In the case of G14C U21G, the self-cleavage was 0.11.

As to G14C U21C, the self-cleavage came out at 0.286.

In the case of G14U U38C, the self-cleavage amounted to 0.573.

G14U U38G: the self-cleavage stood at 0.111.

Take G14U U38A: the self-cleavage came to 0.566.

As to G14U C66A, the self-cleavage is 0.374.

On to G14U C66G, for which the self-cleavage stood at 0.325.

Consider G14A U67A, for which the self-cleavage was 0.635.

On to G14A U67G, for which the self-cleavage was determined as 0.682.

G14A U67C: the self-cleavage came out at 0.583.

On to A15C C33A, for which the self-cleavage amounted to 0.32.

Consider A15C C33G, for which the self-cleavage turned out to be 0.259.

G14C U43G: the self-cleavage came to 0.246.

For the variant G14A U49C, the self-cleavage amounted to 0.646.

Consider G14U U67G, for which the self-cleavage was 0.77.

These data come from the RNAGym collection of RNA variant scans (doi:10.7554/elife.80360).
